Test results from article doi:10.1101/2025.07.16.665076, “GPLD1 is as a scavenger carrier mediating lysosomal degradation of extracellular aberrant proteins” (bioRxiv, 2025).

Molecular target: T1, GPLD1-mCherry-sfGFP-His (GPLD1-RG) (human, UniProt P80108 24-840)
T1 construct: signal peptide in the construct; glycosylphosphatidylinositol-specific phospholipase D1 (GPLD1), human, full length, amplified from HepG2 cDNA; The fusion is said to be 160 kDa; also called GPLD1-RFP-GFP; GPLD1-RG-His; not shown: mCherry, C-terminal, kept; sfGFP, C-terminal, kept; His, C-terminal, kept
T1 sequence (looked up): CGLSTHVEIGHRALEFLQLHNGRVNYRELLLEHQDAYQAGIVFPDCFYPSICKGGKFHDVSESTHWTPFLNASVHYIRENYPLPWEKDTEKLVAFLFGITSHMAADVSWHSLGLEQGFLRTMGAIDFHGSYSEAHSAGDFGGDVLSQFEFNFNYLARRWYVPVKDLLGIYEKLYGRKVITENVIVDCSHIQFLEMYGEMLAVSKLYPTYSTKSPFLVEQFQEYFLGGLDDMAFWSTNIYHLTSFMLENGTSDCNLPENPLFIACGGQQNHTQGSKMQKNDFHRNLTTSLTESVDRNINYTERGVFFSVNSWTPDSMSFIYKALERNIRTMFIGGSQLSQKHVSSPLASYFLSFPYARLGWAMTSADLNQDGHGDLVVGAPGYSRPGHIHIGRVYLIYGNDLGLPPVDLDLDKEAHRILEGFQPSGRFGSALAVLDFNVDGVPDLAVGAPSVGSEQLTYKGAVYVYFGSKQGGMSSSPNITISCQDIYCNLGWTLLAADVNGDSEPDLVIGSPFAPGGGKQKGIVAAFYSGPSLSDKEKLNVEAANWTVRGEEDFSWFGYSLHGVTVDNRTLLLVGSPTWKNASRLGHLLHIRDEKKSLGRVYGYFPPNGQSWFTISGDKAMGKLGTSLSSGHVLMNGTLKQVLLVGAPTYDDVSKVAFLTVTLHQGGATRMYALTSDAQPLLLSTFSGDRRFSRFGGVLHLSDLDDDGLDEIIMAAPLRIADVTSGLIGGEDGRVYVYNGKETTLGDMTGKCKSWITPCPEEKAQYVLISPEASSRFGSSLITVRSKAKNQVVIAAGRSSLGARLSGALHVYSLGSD
Experiment: co-IP; purified RG-tagged protein (GPLD1-RG 40 nM) and ALFA-tagged substrate (His-ALFA-SAA1 500 nM) in PBS, 37°C with shaking for 2 h, aggregates spun out; ALFA nanobody beads at 4°C for 2 h, four washes with PBS; immunoblot
Conditions: both partners purified

Binder	binding result
His-ALFA-SAA1-N terminus (SAA1-N) (domain or fragment, human, UniProt P0DJI8 19-94, looked up, serum amyloid A1 (SAA1), human, amino acids 19-94: the N-terminal 76 residues, core amyloidogenic fragment; Prepared in 8 M urea-denatured form for all experiments; it aggregates on incubation in PBS; also called His-ALFA-tagged SAA1-N; source: E. coli BL21(DE3) pLysS, purified from inclusion bodies (Co-NTA, 8 M urea), stored in urea; not shown: His, N-terminal, kept; ALFA, N-terminal, kept) RSFFSFLGEAFDGARDMWRAYSDMREANYIGSDKYFHARGNYDAAKRGPGGAWAAEVITDARENIQRFFGHGAEDS	binds
His-ALFA-SAA1-Full length (SAA1-F) (natural protein, human, UniProt P0DJI8 19-122, looked up, serum amyloid A1 (SAA1), human, amino acids 19-122; Used in native form in the immunoprecipitation; the purification of the native form is not described; also called native ALFA-SAA1-F (full-length); source: E. coli BL21(DE3) pLysS, recombinant; not shown: His, N-terminal, kept; ALFA, N-terminal, kept) RSFFSFLGEAFDGARDMWRAYSDMREANYIGSDKYFHARGNYDAAKRGPGGAWAAEVITDARENIQRFFGHGAEDSLADQAANEWGRSGKDPNHFRPAGLPEKY	binds
